Columns and labels:
[1] = target: Fr. 3 antigen (C-terminal region, zinc finger region, positions 294-449 of WT1) (human) (UniProt P19544); experiment: antigen inhibition ELISA on immobilised Fr. 3; antibody whose binding is inhibited: C-19 (PoAb)
[2] = target: Fr. 3 antigen (C-terminal region, zinc finger region, positions 294-449 of WT1) (human) (UniProt P19544); experiment: antigen inhibition ELISA on immobilised Fr. 3; antibody whose binding is inhibited: serum sample No. 7
[3] = target: Fr. 3 antigen (C-terminal region, zinc finger region, positions 294-449 of WT1) (human) (UniProt P19544); experiment: antigen inhibition ELISA on immobilised Fr. 3; antibody whose binding is inhibited: serum sample No. 3
[4] = target: Fr. 3 antigen (C-terminal region, zinc finger region, positions 294-449 of WT1) (human) (UniProt P19544); experiment: antigen inhibition ELISA on immobilised Fr. 3; antibody whose binding is inhibited: serum sample No. 9

Sequence of UniProt P19544 (P19544 294-449): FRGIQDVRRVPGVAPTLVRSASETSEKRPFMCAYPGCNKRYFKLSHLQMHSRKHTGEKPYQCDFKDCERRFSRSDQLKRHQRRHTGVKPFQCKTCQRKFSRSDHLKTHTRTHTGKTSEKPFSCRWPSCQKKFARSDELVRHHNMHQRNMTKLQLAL

Row | Substance | percent inhibition [1] [%] | percent inhibition [2] [%] | percent inhibition [3] [%] | percent inhibition [4] [%]
1 | Fr. 2 antigen (hWT1 Fr. 2, central region, positions 181-324 of WT1) (from UniProt P19544 181-324) | 50 | 20 | 70 | –
2 | Fr. 1 antigen (recombinant hWT1 Fr. 1, N-terminal region, positions 1-182 of WT1) (from UniProt P19544 1-182) | 25 | 10 | – | 40

From patent US20170138958A1
